Patent US6379959 (UNIVERSITAT AUTONOMA DE BARCELONA, dated 2002)
Positions of bridges follow the written chain, without caps; N, C: chain ends. No end group written: not given here.

Tests used:
[1] = biological target: T1, receptor for epidermic growth factor (EGF-R) on Capan-1 and A431 cells (human (human cell line Capan-1), UniProt P00533 25-1210); assay: competition with 125I-EGF on Capan-1 cells, two-site fit (Graphpad Inplot4); high affinity site
T1 construct: whole, on cells; both are called EGF receptors; also called EGF receptor; receptor of EGF
Experimental: (§1) From the previous adjustment, the value of $IC50$ for the two binding sites and the percentage of each type of binding sites was determined.

[2] = biological target: T1, receptor for epidermic growth factor …; assay: competition with 125I-EGF on Capan-1 cells, two-site fit (Graphpad Inplot4); low affinity site
Experimental: as §1

B1: potato carboxypeptidase inhibitor, isoform IIa, recombinant (other)
chain: EQHADPICNKPCKTHDDCSGAWFCQACWNSARTCGPYVG
modifications: disulfide 12-27, 18-34, 8-24
notes: Secreted from E. coli MC1061 (pIMAM3, OmpA signal peptide directly before the first codon of native PCI); also called PCI; rPCI
IC50 [1]: 0.014 nM | IC50 [2]: 579 µM
